Results: US20030078191A1 (published 2003)

T1: B42-FtsZ fusion (pB42-FtsZ, SHp256) (Escherichia coli, UniProt P0A9A6 1-383)
T1 construct: Yeast two-hybrid prey; entire FtsZ gene cloned into pB42
T1 sequence: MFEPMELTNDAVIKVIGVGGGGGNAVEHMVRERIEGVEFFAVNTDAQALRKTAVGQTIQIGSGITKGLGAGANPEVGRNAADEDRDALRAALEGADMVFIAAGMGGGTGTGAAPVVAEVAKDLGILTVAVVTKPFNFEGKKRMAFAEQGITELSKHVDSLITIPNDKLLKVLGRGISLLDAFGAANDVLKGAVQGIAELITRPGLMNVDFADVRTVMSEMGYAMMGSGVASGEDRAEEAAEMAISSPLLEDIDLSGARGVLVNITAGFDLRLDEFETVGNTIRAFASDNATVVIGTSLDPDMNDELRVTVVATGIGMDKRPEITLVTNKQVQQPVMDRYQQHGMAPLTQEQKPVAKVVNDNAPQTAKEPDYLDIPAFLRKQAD

T2: Gal4 activation domain alone (pGAD424 vector, no fusion) (UniProt P04386 768-881)
T2 sequence (looked up): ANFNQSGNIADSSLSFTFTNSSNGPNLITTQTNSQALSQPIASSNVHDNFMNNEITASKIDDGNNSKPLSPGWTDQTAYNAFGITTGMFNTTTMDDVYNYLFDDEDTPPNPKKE

T3: Gal4ad-FtsA fusion (UniProt P0ABH0 1-420)
T3 sequence: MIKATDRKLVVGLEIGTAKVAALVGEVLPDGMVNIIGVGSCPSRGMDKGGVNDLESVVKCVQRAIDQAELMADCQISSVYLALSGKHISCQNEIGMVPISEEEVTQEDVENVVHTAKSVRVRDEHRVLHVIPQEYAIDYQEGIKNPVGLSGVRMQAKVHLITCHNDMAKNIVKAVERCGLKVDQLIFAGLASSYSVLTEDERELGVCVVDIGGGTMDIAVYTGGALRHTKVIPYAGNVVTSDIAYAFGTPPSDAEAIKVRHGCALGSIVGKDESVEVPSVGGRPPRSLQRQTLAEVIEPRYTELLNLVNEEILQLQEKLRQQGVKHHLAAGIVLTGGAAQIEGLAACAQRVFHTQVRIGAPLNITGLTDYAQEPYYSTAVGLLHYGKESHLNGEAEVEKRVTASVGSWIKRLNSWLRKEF


How the values were obtained:
[1] = target: T1, B42-FtsZ fusion (pB42-FtsZ, SHp256); experiment: yeast two-hybrid (LexA fusion x B42 fusion), growth on plates without histidine
[2] = target: Gal4ad-ZipA(185-302) fusion (pGAD424 fusion) (Escherichia coli); experiment: cell-based or functional assay
[3] = target: T2, Gal4 activation domain alone (pGAD424 …); experiment: cell-based or functional assay
[4] = target: Gal4ad-ZipA(35-185) fusion (pGAD424 fusion) (Escherichia coli); experiment: cell-based or functional assay
[5] = target: Gal4ad-ZipA(35-284) fusion (pGAD424 fusion) (Escherichia coli); experiment: cell-based or functional assay
[6] = target: Gal4ad-ZipA(62-328) fusion (pGAD424 fusion) (Escherichia coli); experiment: cell-based or functional assay
[7] = target: Gal4ad-ZipA(185-328) fusion (pGAD424 fusion) (Escherichia coli, UniProt P77173 185-328); experiment: cell-based or functional assay
Gal4ad-FtsA fusion = target: T3, Gal4ad-FtsA fusion; experiment: yeast two-hybrid, Gal4 system
[8] = target: T1, B42-FtsZ fusion (pB42-FtsZ, SHp256); experiment: yeast two-hybrid (LexA/B42), LEU2 and lacZ reporters, haploids and diploids

Binder	binding result [1]	beta-galactosidase (lacZ reporter) activity, MUG fluorescence, yeast two-hybrid [2]	beta-galactosidase (lacZ reporter) activity, MUG fluorescence, yeast two-hybrid [3]	beta-galactosidase (lacZ reporter) activity, MUG fluorescence, yeast two-hybrid [4]	beta-galactosidase (lacZ reporter) activity, MUG fluorescence, yeast two-hybrid [5]	beta-galactosidase (lacZ reporter) activity, MUG fluorescence, yeast two-hybrid [6]	beta-galactosidase (lacZ reporter) activity, MUG fluorescence, yeast two-hybrid [7]	binding result (Gal4ad-FtsA fusion)	binding result [8]
LexA-OrfE fusion (kil as a fusion to the LexA DNA-binding protein) (other) MKALTARQQEVFDLIRDHISQTGMPPTRAEIAQRLGFRSPNAAEEHLKALARKGVIEIVSGASRGIRLLQEEEEGLPLVGRVAAGEPLLAQQHIEGHYQVDPSLFKPNADFLLRVSGMSMKDIGIMDGDLLAVHKTQDVRNGQVVVARIDDEVTVKRLKKQGNKVELLPENSEFKPIVVDLRQQSFTIEGLAVGVIRNGDWLMIAHHFGTDEIPRQCVTPGDYVLHEGRTYIASANNIKKRKLYIRNLTTKTFITDRMIKVFLGRDGLPVKAESW	no binding								
Gal4bd-OrfE fusion (pAS2-1 fusion of kil) (other, also called Gal4bd-Kil) MKLLSSIEQACDICRLKKLKCSKEKPKCAKCLKNNWECRYSPKTKRSPLTRAHLTEVESRLERLEQLFLLIFPREDLDMILKMDSLQDIKALLTGLFVQDNVNKDAVTDRLASVETDMPLTLRQHRISATSSSEESSNKGQRQLTVSMIAHHFGTDEIPRQCVTPGDYVLHEGRTYIASANNIKKRKLYIRNLTTKTFITDRMIKVFLGRDGLPVKAESW		721 units	1230 units	1140 units	7580 units	8530 units	1910 units	no binding	
Gal4bd-FtsZ(311-383) fusion (pAS2-1-FtsZ(311-383), SHp102) (other) MKLLSSIEQACDICRLKKLKCSKEKPKCAKCLKNNWECRYSPKTKRSPLTRAHLTEVESRLERLEQLFLLIFPREDLDMILKMDSLQDIKALLTGLFVQDNVNKDAVTDRLASVETDMPLTLRQHRISATSSSEESSNKGQRQLTVSVATGIGMDKRPEITLVTNKQVQQPVMDRYQQHGMAPLTQEQKPVAKVVNDNAPQTAKEPDYLDIPAFLRKQAD		828 units	997 units	971 units	8620 units	7430 units	2630 units		
LexA alone (pLexA vector, SHp40) (other) MKALTARQQEVFDLIRDHISQTGMPPTRAEIAQRLGFRSPNAAEEHLKALARKGVIEIVSGASRGIRLLQEEEEGLPLVGRVAAGEPLLAQQHIEGHYQVDPSLFKPNADFLLRVSGMSMKDIGIMDGDLLAVHKTQDVRNGQVVVARIDDEVTVKRLKKQGNKVELLPENSEFKPIVVDLRQQSFTIEGLAVGVIRNGDWL									no binding
